Source: patent publication US20230287068A1, “KERATIN BD-6, PREPARATION METHOD THEREFOR AND PHARMACEUTICAL COMPOSITION AND USE THEREOF” (INSTITUTE OF MATERIAL MEDICA, CHINESE ACADEMY OF MEDICAL …, priority 2019, published 2023)

Key:
[1] = system: mice cough induced by ammonia water; test: Antitussive test, cough induced by ammonia water in mice; format: in vivo, ICR mice; conditions: for Incubation period (cough): 10% ammonia water 10 seconds; for Incubation period (cough) / Number of coughs: X±SEM; for Number of coughs: within 2 minutes
Description: • Animals: male ICR mice; • Drugs and reagents: dextromethorphan hydrobromide, ammonia water, 0.2% CMC-Na, protein BD-6; • Apparatus: Compressed nebulizer (403T type), balance (XS105DU type). • Experiment grouping: • Solvent control group; • Dextromethorphan 15 mg/kg group; • Protein BD-6, 20 mg/kg group, 50 mg/kg group.
Dextromethorphan and different doses of protein BD-6 (administration volume 10 ml/kg) were given orally in groups, and the solvent control group was given the same volume of distilled water. One hour later, mice were put into a sealed box and atomized 10% ammonia water for 10 seconds, and then observed and recorded the incubation period of cough in mice and the number of coughs in 2 minutes.
Record the time point of oral administration, the time point of atomization experiment, the incubation period of mice cough and the number of coughs within 2 minutes, respectively. The incubation period of cough refers to the number of seconds from the start of the atomization of ammonia to the occurrence of cough. The performance of coughing in mice is based on contraction of their abdominal muscles (breast contraction) and opening their mouths at the same time. Calculate the mean and standard error of each group of data, and use TTEST to compare the model group with other groups, and P<0.05 is considered as a significant difference.

[2] = system: phenol red excretion method in mice; test: Expectorant test, phenol red excretion method in mice; format: in vivo, ICR mice; conditions: for Phenol red excretion: X±SEM, N=10
Description: • Animals: male ICR mice; • Drugs and reagents: Mucosolvan (ambroxol hydrochloride tablets), phenol red, sodium bicarbonate, protein BD-6; • Instruments: centrifuge (Sigma-3K15 type), balance (XS105DU type), Microplate tester (BIO-TEK type). • Experiment grouping: • Solvent control group; • Mucosolvan 30 mg/kg group; • Protein BD-6, 20 mg/kg group, 50 mg/kg group.
The animals were fasted and water was taken freely 16 hours before the experiment. Orally administered Mucosolvan and different doses of protein BD-6 (administration volume 10 ml/kg) in groups, and the solvent control group was given the same volume of distilled water. One hour later, 2.5% phenol red solution was injected intraperitoneally. Mice were sacrificed by neck dislocation after 30 minutes. Take a trachea from below the thyroid cartilage to the branch of the trachea, and put the trachea into 3 ml 5% NaHCO3 solution and let it stand for 3 hours. Take 1 ml of the supernatant and centrifuge at 3000 rpm for 5 minutes. Measure and record the absorbance at 546 nm. According to the standard curve of phenol red, the excretion of phenol red was calculated.
Record the time point of oral administration, the time point of intraperitoneal injection of 2.5% phenol red solution, and the time point of taking the trachea respectively; The absorbance of each group of samples was measured by the microplate reader at 546 nm, Calculate the excretion of phenol red according to the standard curve of phenol red. Calculate the mean and standard error of the data in each group, and use TTEST to compare the solvent control group with other groups, and P<0.05 is considered as a significant difference.

[3] = system: PTZ-induced epilepsy in mice; test: Pentylenetetrazole (PTZ) induced epilepsy in mice; format: in vivo, ICR mice; conditions: for Cases of deaths / Grade IV seizure rate / mortality rate / Cases of Grade IV / Grade III seizure incubation period / Grade IV seizure incubation period: PTZ 65 mg/kg i.p.; for Cases of deaths / Grade IV seizure rate / mortality rate / Cases of Grade IV: 10 mice; for Cases of Grade IV: 15 min observation; for Grade III seizure incubation period / Grade IV seizure incubation period: mean±SEM; for Grade IV seizure incubation period: maximum 900 seconds
Description: • Animals: male ICR mice; • Medicines: Pentylenetetrazol (PTZ), Retigabine, Protein BD-6. • Experiment grouping: • Model group; • Retigabine 60 mg/kg group; • Protein BD-6, 50 mg/kg group, 200 mg/kg group;
The drug was administered once in the afternoon the day before modeling, On the day of modeling, PTZ-65 mg/kg (modeling agent) was injected intraperitoneal 1 hour after the test drug was administered intragastrically, and the positive drug can be administered once half an hour before modeling. Continue to observe for 15 minutes after injection of PTZ.
Observation index: ①Seizure situation: the time of seizures from Grade III to Grade VI; ②Death situation
Seizure grade: Refer to Racine grading standard: Grade 0: No response; Grade I: manifested as twitching of facial muscles or the corners of the mouth; Grade II: can nod; Grade III: twitching of one limb; Grade IV: rigidity or body twitching; Grade V: generalized epilepsy (generalized tonic seizures).
Count the cases of seizures and deaths in each group of mice in the experiment; Grade III and IV incubation period. The incubation period of mice that have not attacked to Grade IV is recorded as the maximum of 900 seconds. Chi-square test was used for statistics of the number of cases. Calculate the mean and standard error of the incubation period. Use TTEST to compare the model group with other groups, and P<0.05 is considered as a significant difference.

[4] = system: acetic acid writhing of ICR mice; test: Acetic acid writhing test in ICR mice; format: in vivo; conditions: for Frequency of writhing / Writhing incubation period: 0.6% acetic acid i.p., within 15 minutes
Description: • Animals: male ICR mice; • Drugs and reagents: aspirin, physiological saline, glacial acetic acid, protein BD-6. • Experiment grouping: • Model group; • Aspirin 300 mg/kg group; • Protein BD-6, 50 mg/kg group, 200 mg/kg group.
One day after the experimental animals adapt to the environment, Aspirin 300 mg/kg, protein BD-6 50 mg/kg, 200 mg/kg were given orally one hour in advance, and the administration volume was 10 ml/kg; Then, 0.6% acetic acid solution was injected intraperitoneally, and the incubation period (seconds) and frequency of writhing in the animal was observed within 15 minutes.
Calculate the mean and standard error of the data in each group. Compared with the model group by TTEST, P<0.05 was considered as statistically different.

[5] = BD-6 20 mg/kg and 50 mg/kg, P<0.05

B1: BD-6: recombinant keratin with the amino acid sequence SEQ ID NO:1, expressed in E. coli, about 45 kD; protein of Example 4 (protein, listed as Bos taurus)
chain: MTTTIRHFSSGSIKGSSGLAGGSSRSCRVSGSLGGGSCRLGSAGGLGSGLGGSSYSSCYSFGSGGSYGSGGYVSGGYGGGFGGVDGLLVGGEKATMQNLNDRLASYLDKVRALEEANTELELKIRDWYQKQAPGPAPDYSSYFKTIEDLRNKIHTATVDNANLLLQIDNARLAADDFRTKFETEQALRVSVEADINGLRRVLDELTLARADLEMQIENLKEELAYLRKNHEEEMKALRGQVGGEINVEMDAAPGVDLSRILNEMRDQYEKMAEKNRKDAEDWFFSKTEELNREVATNSELVQSGKSEISELRRTLQALEIELQSQLSMKASLEGSLAETENRYCMQLSQIQGLIGSVEEQLAQLRCEMEQQNQEYKILLDVKTRLEQEIATYRRLLEGEDAHLTQYKTKEPVTTRQVRTIVEEVQDGRVISSREQVHQTSH
Number of coughs vs solvent control (in words) [1, 5]: significant improvement in the number of coughs | Incubation period (cough) ([1]; BD-6 20 mg/kg oral): 33.3±3.3^∗ s | Number of coughs ([1]; BD-6 20 mg/kg oral): 45.9±4.8^∗ | Cough incubation period vs solvent control (in words) ([1]; BD-6 20 mg/kg, P<0.05): significant improvement effect in the incubation period | Incubation period (cough) ([1]; BD-6 50 mg/kg oral): 30.6 ± 2.5 s | Number of coughs ([1]; BD-6 50 mg/kg oral): 49.8±3.8^∗ | Excretion of phenol red vs solvent control (in words) [2, 5]: significantly increased the excretion of phenol red | Phenol red excretion ([2]; BD-6 20 mg/kg oral): 0.789±0.115^∗ µg/ml | Phenol red excretion ([2]; BD-6 50 mg/kg oral): 0.855±0.085^∗∗ µg/ml | Incubation period of Grade III epilepsy vs model group (in words) ([3]; BD-6 50 mg/kg and 200 mg/kg, PTZ model): have statistical differences compared with the model group | Cases of deaths ([3]; BD-6 50 mg/kg intragastric): 0 | Grade IV seizure rate ([3]; BD-6 50 mg/kg intragastric): 60% | mortality rate ([3]; BD-6 50 mg/kg intragastric): 0% | Cases of Grade IV ([3]; BD-6 50 mg/kg intragastric): 6 | Grade III seizure incubation period ([3]; BD-6 50 mg/kg intragastric): 74±5^∗∗ s | Grade IV seizure incubation period ([3]; BD-6 50 mg/kg intragastric): 440 ± 128 s | Cases of deaths ([3]; BD-6 200 mg/kg intragastric): 1 | Grade IV seizure rate ([3]; BD-6 200 mg/kg intragastric): 90% | mortality rate ([3]; BD-6 200 mg/kg intragastric): 10% | Cases of Grade IV ([3]; BD-6 200 mg/kg intragastric): 9 | Grade III seizure incubation period ([3]; BD-6 200 mg/kg intragastric): 69±6^∗ s | Grade IV seizure incubation period ([3]; BD-6 200 mg/kg intragastric): 201 ± 81 s | Frequency of writhing ([4]; BD-6 50 mg/kg oral): 31.1±3.7 times | Writhing incubation period ([4]; BD-6 50 mg/kg oral): 220.7 ± 22.2 s | Frequency of writhing ([4]; BD-6 200 mg/kg oral): 18.6±2.7^∗∗ times | Writhing incubation period ([4]; BD-6 200 mg/kg oral): 193.2 ± 17.3 s | Times of writhing vs model group (in words) ([4]; BD-6 200 mg/kg, P<0.05): can significantly reduce the times of writhing in mice
